PMC10281804 (2023)

B1: mCherry-KANK1 wild type (human full-length KANK1) [human] / GFP-talin1-cBAK [mouse] (parent complex)
chain 1: MAHTTKVNGSASGKAGDILSGDQDKEQKDPYFVETPYGYQLDLDFLKYVDDIQKGNTIKRLNIQKRRKPSVPCPEPRTTSGQQGIWTSTESLSSSNSDDNKQCPNFLIARSQVTSTPISKPPPPLETSLPFLTIPENRQLPPPSPQLPKHNLHVTKTLMETRRRLEQERATMQMTPGEFRRPRLASFGGMGTTSSLPSFVGSGNHNPAKHQLQNGYQGNGDYGSYAPAAPTTSSMGSSIRHSPLSSGISTPVTNVSPMHLQHIREQMAIALKRLKELEEQVRTIPVLQVKISVLQEEKRQLVSQLKNQRAASQINVCGVRKRSYSAGNASQLEQLSRARRSGGELYIDYEEEEMETVEQSTQRIKEFRQLTADMQALEQKIQDSSCEASSELRENGECRSVAVGAEENMNDIVVYHRGSRSCKDAAVGTLVEMRNCGVSVTEAMLGVMTEADKEIELQQQTIESLKEKIYRLEVQLRETTHDREMTKLKQELQAAGSRKKVDKATMAQPLVFSKVVEAVVQTRDQMVGSHMDLVDTCVGTSVETNSVGISCQPECKNKVVGPELPMNWWIVKERVEMHDRCAGRSVEMCDKSVSVEVSVCETGSNTEESVNDLTLLKTNLNLKEVRSIGCGDCSVDVTVCSPKECASRGVNTEAVSQVEAAVMAVPRTADQDTSTDLEQVHQFTNTETATLIESCTNTCLSTLDKQTSTQTVETRTVAVGEGRVKDINSSTKTRSIGVGTLLSGHSGFDRPSAVKTKESGVGQININDNYLVGLKMRTIACGPPQLTVGLTASRRSVGVGDDPVGESLENPQPQAPLGMMTGLDHYIERIQKLLAEQQTLLAENYSELAEAFGEPHSQMGSLNSQLISTLSSINSVMKSASTEELRNPDFQKTSLGKITGNYLGYTCKCGGLQSGSPLSSQTSQPEQEVGTSEGKPISSLDAFPTQEGTLSPVNLTDDQIAAGLYACTNNESTLKSIMKKKDGNKDSNGAKKNLQFVGINGGYETTSSDDSSSDESSSSESDDECDVIEYPLEEEEEEEDEDTRGMAEGHHAVNIEGLKSARVEDEMQVQECEPEKVEIRERYELSEKMLSACNLLKNTINDPKALTSKDMRFCLNTLQHEWFRVSSQKSAIPAMVGDYIAAFEAISPDVLRYVINLADGNGNTALHYSVSHSNFEIVKLLLDADVCNVDHQNKAGYTPIMLAALAAVEAEKDMRIVEELFGCGDVNAKASQAGQTALMLAVSHGRIDMVKGLLACGADVNIQDDEGSTALMCASEHGHVEIVKLLLAQPGCNGHLEDNDGSTALSIALEAGHKDIAVLLYAHVNFAKAQSPGTPRLGRKTSPGPTHRGSFD
chain 2: MVALSLKISIGNVVKTMQFEPSTMVYDACRMIRERIPEALAGPPNDFGLFLSDDDPKKGIWLEAGKALDYYMLRNGDTMEYRKKQRPLKIRMLDGTVKTIMVDDSKTVTDMLMTICARIGITNHDEYSLVRELMEEKKDEGTGTLRKDKTLLRDEKKMEKLKQKLHTDDELNWLDHGRTLREQGVEEHETLLLRRKFFYSDQNVDSRDPVQLNLLYVQARDDILNGSHPVSFDKACEFAGFQCQIQFGPHNEQKHKAGFLDLKDFLPKEYVKQKGERKIFQAHKNCGQMSEIEAKVRYVKLARSLKTYGVSFFLVKEKMKGKNKLVPRLLGITKECVMRVDEKTKEVIQEWSLTNIKRWAASPKSFTLDFGDYQDGYYSVQTTEGEQIAQLIAGYIDIILKKKKSKDHFGLEGDEESTMLEDSVSPKKSTVLQQQYNRVGKVEHGSVALPAIMRSGASGPENFQVGSMPPAQQQITSGQMHRGHMPPLTSAQQALTGTINSSMQAVQAAQATLDDFETLPPLGQDAASKAWRKNKMDESKHEIHSQVDAITAGTASVVNLTAGDPAETDYTAVGCAVTTISSNLTEMSRGVKLLAALLEDEGGNGRPLLQAAKGLAGAVSELLRSAQPASAEPRQNLLQAAGNVGQASGELLQQIGESDTDPHFQDVLMQLAKAVASAAAALVLKAKSVAQRTEDSGLQTQVIAAATQCALSTSQLVACTKVVAPTISSPVCQEQLVEAGRLVAKAVEGCVSASQAATEDGQLLRGVGAAATAVTQALNELLQHVKAHATGAGPAGRYDQATDTILTVTENIFSSMGDAGEMVRQARILAQATSDLVNAIKADAEGESDLENSRKLLSAAKILADATAKMVEAAKGAAAHPDSEEQQQRLREAAEGLRMATNAAAQNAIKKKLVQRLEHAAKQAAASATQTIAAAQHAASAPKASAGPQPLLVQSCKAVAEQIPLLVQGVRGSQAQPDSPSAQLALIAASQSFLQPGGKMVAAAKASVPTIQDQASAMQLSQCAKNLGTALAELRTAAQKAQEACGPLEMDSALSVVQNLEKDLQEIKAAARDGKLKPLPGETMEKCTQDLGNSTKAVSSAIAKLLGEIAQGNENYAGIAARDVAGGLRSLAQAARGVAALTSDPAVQAIVLDTASDVLDKASSLIEEAKKASGHPGDPESQQRLAQVAKAVTQALNRCVSCLPGQRDVDNALRAVGDASKRLLSDSLPPSTGTFQEAQSRLNEAAAGLNQAATELVQASRGTPQDLARASGRFGQDFSTFLEAGVEMAGQAPSQEDRAQVVSNLKGISMSSSKLLLAAKALSTDPASPNLKSQLAAAARAVTDSINQLITMCTQQAPGQKECDNALRQLETVRELLENPVQPINDMSYFGCLDSVMENSKVLGEAMTGISQNAKNGNLPEFGDAIATASKALCGFTEAAAQAAYLVGVSDPNSQAGQQGLVEPTQFARANQAIQMACQSLGEPGCTQAQVLSAATIVAKHTSALCNSCRLASARTANPTAKRQFVQSAKEVANSTANLVKTIKALDGDFTEENRAQCRAATAPLLEAVDNLSAFASNPEFSSVPAQISPEGRAAMEPIVISAKTMLESAGGLIQTARALAVNPRDPPRWSVLAGHSRTVSDSIKKLITSMRDKAPGQLECETAIAALNSCLRDLDQASLAAVSQQLAPREGISQEALHTQMLTAVQEISHLIEPLASAARAEASQLGHKVSQMAQYFEPLTLAAVGAASKTLSHPQQMALLDQTKTLAESALQLLYTAKEAGGNPKQAAHTQEALEEAVQMMTEAVEDLTTTLNEAASAAGVVGGMVDSITQAINQLDEGPMGDPEGSFVDYQTTMVRTAKAIAVTVQEMVTKSNTSPEELGPLANQLTSDYGRLASQAKPAAVAAENEEIGAHIKHRVQELGHGCSALVTKAGALQCSPSDVYTKKELIECARRVSEKVSHVLAALQAGNRGTQACITAASAVSGIIADLDTTIMFATAGTLNREGAETFADHREGILKTAKVLVEDTKVLVQNAAGSQEKLAQAAQSSVATITRLADVVKLGAASLGAEDPETQVVLINAVKDVAKALGDLISATKAAAGKVGDDPAVWQLKNSAKVMVTNVTSLLKTVKAVEDEATKGTRALEATTEHIRQELAVFCSPEPPAKTSTPEDFIRMTKGITMATAKAVAAGNSCRQEDVIATANLSRRAIADMLRACKEAAFHPEVAPDVRLRALHYGRECANGYLELLDHVLLTLQKPNPDLKQQLTGHSKRVAGSVTELIQAAEAMKGTEWVDPEDPTVIAENELLGAAAAIEAAAKKLEQLKPRAKPKEADESLNFEEQILEAAKSIAAATSALVKAASAAQRELVAQGKVGAIPANALDDGQWSQGLISAARMVAAATNNLCEAANAAVQGHASQEKLISSAKQVAASTAQLLVACKVKADQDSEAMKRLQAAGNAVKRASDNLVKAAQKAAAFEDQENETVVVKEKMVGGIAQIIAAQEEMLRKERELEEARKKLAQIRQQQYKFLPSELRDEH

Variants of: B1
Experiment: mitochondria pulldown (MTS assay), Western blot quantification; HEK293T cells; triplicate experiments; read off a plot

Question: With chain 1 V49E as the variant, how does the percent of parent read?
Answer: Its percent of parent is roughly 2%.
